Measured values: the supplement of paper PMC10567573

B1: GAGE1 (parent)
chain: RPRRYVQPPEMIGPMRPEQFSDEV

Variants of: B1
Assay: protein stability index of a GFP-peptide fusion (GPS, HEK-293T) (PSI 1-6); higher = more stable
Settings: c terminus: a fixed tail appended
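Note: lentivirally expressed fusions sorted by FACS into six bins by GFP to DsRed ratio, PSI derived from sequencing read proportions per bin multiplied by bin number.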

Protein stability index of substitutions, site by site:
P2: Q 3.45 | S 3.92 | L 2.99 | G 3.59 | N 3.51 | C 2.99 | I 2.5 | H 3.61 | D 3.98 | A 3.59 | V 3.5 | F 2.81 | M 3.24 | R 4.1 | Y 2.21 | E 4.12 | W 2.14 | T 3.33 | K 3.24
V6: H 3.69 | K 3.83 | W 3.18 | R 3.6 | S 4.17 | I 3.94 | D 4.34 | F 3.39 | E 3.92 | T 3.66 | A 3.3 | L 3.69 | Q 3.59 | G 4.18 | M 3.59 | N 3.9 | C 3.63 | P 4.06 | Y 3.01
P9: I 3.57 | Q 4.52 | H 3.82 | L 4 | R 4.36 | K 4.13 | C 4.24 | F 3.79 | W 3.77 | M 3.92 | V 2.61 | G 4.46 | E 4.71 | D 4.61 | N 3.97 | Y 3.62 | S 4.29 | T 4.28 | A 3.75
R1: Y 3.29 | W 2.74 | V 3.59 | T 4.01
E10: D 4.51 | L 3.39 | A 4.15 | G 4.16 | H 4.32 | K 4.48 | N 3.97 | I 3.69 | M 4 | C 3.13 | F 3.88
Y5: T 4.45 | L 3.31 | N 4.17 | M 3.47 | K 4.43 | A 4.38 | R 3.91 | P 4.32 | D 4.22 | H 3.81 | V 4.41 | S 4 | G 4.49 | Q 4.2 | F 3.78 | I 3.31 | W 3.61 | C 3.2 | E 4.55
Q7: D 3.8 | E 3.86 | P 3.96 | I 3.63 | M 3.52 | V 3.57 | F 3.87 | C 4.04 | N 3.64 | A 3.77 | H 4.14 | L 3.85 | K 4.02 | Y 3.73 | G 3.3 | S 4.24 | T 4.01 | R 3.29 | W 3.73
R4: N 3.72 | S 4.05 | I 3.43 | W 3.09 | F 3.88 | K 3.69 | V 3.89 | L 4.04 | M 4.07 | P 4.11 | H 3.43 | T 3.98 | Y 3.79 | C 3.64 | A 3.94 | E 3.92 | G 4.12 | D 4.46 | Q 4.66
R3: W 2.6 | Y 3.1 | E 4.51 | A 3.74 | P 4.04 | D 4.28 | Q 4.11 | V 4.03 | F 2.21 | H 3.83 | L 2.88 | N 4.07 | M 3.89 | I 4.23 | S 4.26 | K 4.02 | T 4.3 | G 3.96 | C 3.1
P8: Y 3.52 | L 3.31 | N 4.22 | E 4.54 | A 3.71 | F 3.41 | I 3.27 | G 4.51 | C 3.61 | V 3.5 | S 4.36 | Q 3.37 | R 3.93 | D 4.31 | K 3.98 | M 3.48 | T 4.12 | W 3.09 | H 4.18
